{"source": "patent US20130217122A1", "about": "“Expansion of Interferon-Gamma-Producing T-Cells Using Glypican-3 Peptide Library” (The Trustees of the University of Pennsylvania, priority 2012, published 2013)", "binders": {"B1": {"name": "Glypican-3 136-145 (SLTPQAFEFV) (peptide)", "peptide": "SLTPQAFEFV", "notes": "Synthetic 10 mer of human glypican-3 (NP-004475); also called GPC3 136-145; GPC3136-145"}}, "biological_target": "T1, human HLA-A2.1 on T2 cells (human)", "T1 construct": "whole, on cells; Empty or peptide-receptive HLA-A2.1 on TAP-deficient T2 cells; also called HLA-A*0201; class I MHC molecules", "experiment": "T2 binding assay (HLA-A2 on T2 cells, flow cytometry)"}
{"binder": "B1", "values": [{"measurement": "binding result", "value": "binds"}]}
